{"source": "patent US20260374875", "about": "(published 2026)", "binders": {"B1": {"name": "W11A4.1 (Dimer) (protein)", "chain": "MGWSCIILFLVATATGVHSSDKTHTCPPCPAPEAAGGPSVFLFPPKPKDTLMISRTPEVTCVVVDVSHEDPEVKFNWYVDGVEVHNAKTKPREEQYNSTYRVVSVLNPYHQDWLNGKEYKCKVSNKALGAPIEKTISKAKGQPREPQVYTLPPSRDELTKNQVSLTCLVKGFYPSDIAVEWESNGQPENNYKTTPPVLDSDGSFFLYSKLTVDKSRWQQGNVFSCSVMHEALRWHYTQKSLSLSPGKGGGSGGGSGGGSGGGSSGGGSSSDKTHTSPPSPAPEAAGGPSVFLFPPKPKDTLMISRTPEVTCVVVDVSHEDPEVKFNWYVDGVEVHNAKTKPREEQYNSTYRVVSVLNPYHQDWLNGKEYKCKVSNKALGAPIEKTISKAKGQPREPQVYTLPPSRDELTKNQVSLTCLVKGFYPSDIAVEWESNGQPENNYKTTPPVLDSDGSFFLYSKLTVDKSRWQQGNVFSCSVMHEALRWHYTQKSLSLSPGK"}, "B2": {"name": "B14 H11A4.1 (mAb) (antibody)", "chain 1": "MGWSCIILFLVATATGVHSQVQLVESGGGLVKPGGSLRLSCAASGFTFSDYYMSWIRQAPGKGLEWVSYITYSGSTIYYADSVKGRFTISRDNAKSSLYLQMNSLRAEDTAVYYCARDRGTTMVPFDYWGQGTLVTVSSASTKGPSVFPLAPSSKSTSGGTAALGCLVKDYFPEPVTVSWNSGALTSGVHTFPAVLQSSGLYSLSSVVTVPSSSLGTQTYICNVNHKPSNTKVDKKVEPKSCDKTHTCPPCPAPEAAGGPSVFLFPPKPKDTLMISRTPEVTCVVVDVSHEDPEVKFNWYVDGVEVHNAKTKPREEQYNSTYRVVSVLNPYHQDWLNGKEYKCKVSNKALGAPIEKTISKAKGQPREPQVYTLPPSREEMTKNQVSLTCLVKGFYPSDIAVEWESNGQPENNYKTTPPVLDSDGSFFLYSKLTVDKSRWQQGNVFSCSVMHEALRWHYTQKSLSLSPGK", "chain 2": "not shown"}, "B3": {"name": "B14 H11A4.3 (mAb) (antibody)", "chain 1": "B2 chain 1 with M274Y, S276T, T278E", "chain 2": "not shown"}, "B4": {"name": "B14 H11A4.2 (mAb) (antibody)", "chain 1": "B2 chain 1 with A256L, A257L, M274Y, S276T, T278E, G351P", "chain 2": "not shown"}, "B5": {"name": "H11A4.3 (monomer) (protein)", "chain": "MGWSCIILFLVATATGVHSSDKTHTCPPCPAPEAAGGPSVFLFPPKPKDTLYITREPEVTCVVVDVSHEDPEVKFNWYVDGVEVHNAKTKPREEQYNSTYRVVSVLNPYHQDWLNGKEYKCKVSNKALGAPIEKTISKAKGQPREPQVYTLPPSREEMTKNQVSLTCLVKGFYPSDIAVEWESNGQPENNYKTTPPVLDSDGSFFLYSKLTVDKSRWQQGNVFSCSVMHEALRWHYTQKSLSLSPGK"}, "B6": {"name": "H11A4.2 (monomer) (protein)", "chain": "B5 chain with A34L, A35L, G129P, E156D, M158L"}, "B7": {"name": "H11A4.1 (Monomer) (protein)", "chain": "B5 chain with Y52M, T54S, E56T"}, "B8": {"name": "A3 H11A4.3 (mAb) (antibody)", "chain 1": "not shown", "chain 2": "MGWSCIILFLVATATGVHSQSALTQPASVSGSPGQSITISCTGTSSDVGGYNYVSWYQQHPGKAPKLMIYDVSKRPSGVSNRFSGSKSGNTASLTISGLQSEDEADYYCNSLTSISTWVFGGGTKLTVLGQPKANPTVTLFPPSSEELQANKATLVCLISDFYPGAVTVAWKADGSPVKAGVETTKPSKQSNNKYAASSYLSLTPEQWKSHRSYSCQVTHEGSTVEKTVAPTECS"}, "B9": {"name": "A3 H11A4.1 (mAb) (antibody)", "chain 1": "not shown", "chain 2": "B8 chain 2"}, "B10": {"name": "A3 H11A4.2 (mAb) (antibody)", "chain 1": "not shown", "chain 2": "B8 chain 2"}}, "note": "Where a chain is given by its changes, count along the chain named."}
{"molecular_target": "T1, human FcRn (human, UniProt P55899)", "test": "SPR, pH 6.0, 25C", "units": {"Kd": "nM"}}
{"binder": "B1", "Kd": 1.68}
{"binder": "B2", "Kd": 2.85}
{"binder": "B3", "Kd": 1.23}
{"binder": "B4", "Kd": 1.74}
{"binder": "B5", "Kd": 0.288}
{"binder": "B6", "Kd": 0.292}
{"binder": "B7", "Kd": 0.559}
{"binder": "B8", "Kd": 0.803}
{"binder": "B9", "Kd": 1.93}
{"binder": "B10", "Kd": 1.04}
{"molecular_target": "T1, human FcRn", "test": "SPR, pH 7.4, 25C", "units": {"Kd": "nM"}}
{"binder": "B2", "Kd": 34.1}
{"binder": "B3", "Kd": 15.1}
{"binder": "B5", "Kd": 7.62}
{"binder": "B6", "Kd": 3.51}
{"binder": "B7", "Kd": 15.2}
{"binder": "B8", "Kd": 18.8}
{"binder": "B9", "Kd": 29.6}
{"binder": "B10", "Kd": 11.2}
{"molecular_target": "T2, monkey FcRn (monkey, UniProt Q8SPV9)", "T2 chain 1": "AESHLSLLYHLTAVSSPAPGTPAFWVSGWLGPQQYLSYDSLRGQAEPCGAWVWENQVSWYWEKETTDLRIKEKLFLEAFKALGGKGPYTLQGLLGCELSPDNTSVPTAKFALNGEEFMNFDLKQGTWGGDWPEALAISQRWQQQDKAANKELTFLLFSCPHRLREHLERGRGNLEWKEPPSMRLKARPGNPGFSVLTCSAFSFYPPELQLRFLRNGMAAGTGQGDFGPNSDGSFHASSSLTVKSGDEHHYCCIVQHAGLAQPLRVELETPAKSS", "T2 chain 2": "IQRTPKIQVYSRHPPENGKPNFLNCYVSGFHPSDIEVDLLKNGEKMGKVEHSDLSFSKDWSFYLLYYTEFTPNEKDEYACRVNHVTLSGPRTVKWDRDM", "test": "SPR, pH 6.0, 25C", "units": {"Kd": "nM"}}
{"binder": "B2", "Kd": 4.26}
{"binder": "B3", "Kd": 2.45}
{"binder": "B5", "Kd": 1.38}
{"binder": "B6", "Kd": 0.592}
{"binder": "B7", "Kd": 0.928}
{"binder": "B8", "Kd": 3.76}
{"binder": "B9", "Kd": 3.13}
{"binder": "B10", "Kd": 0.914}
{"molecular_target": "T3, mouse FcRn (mouse, UniProt Q61559)", "T3 chain 1": "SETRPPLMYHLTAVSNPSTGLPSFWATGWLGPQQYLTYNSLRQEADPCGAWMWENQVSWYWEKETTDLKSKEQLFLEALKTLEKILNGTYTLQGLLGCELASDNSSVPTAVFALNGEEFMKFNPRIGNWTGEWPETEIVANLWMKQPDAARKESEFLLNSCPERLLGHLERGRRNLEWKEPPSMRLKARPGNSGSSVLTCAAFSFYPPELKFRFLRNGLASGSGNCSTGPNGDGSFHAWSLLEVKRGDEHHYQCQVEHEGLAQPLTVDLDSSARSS", "T3 chain 2": "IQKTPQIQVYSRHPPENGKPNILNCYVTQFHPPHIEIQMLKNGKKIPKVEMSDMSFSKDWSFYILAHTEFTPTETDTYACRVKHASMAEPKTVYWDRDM", "test": "SPR, pH 6.0, 25C", "units": {"Kd": "nM"}}
{"binder": "B2", "Kd": 0.189}
{"binder": "B3", "Kd": 0.782}
{"binder": "B5", "Kd": 0.839}
{"binder": "B6", "Kd": 0.0556}
{"binder": "B7", "Kd": 0.0918}
{"binder": "B8", "Kd": 2.57}
{"binder": "B9", "Kd": 0.165}
{"binder": "B10", "Kd": 0.113}
{"molecular_target": "T1, human FcRn", "test": "SPR, pH 6.0, 25C", "remark": "another data set of the same source", "units": {"Kd": "nM"}}
{"binder": "B2", "Kd": 3.3}
{"binder": "B3", "Kd": 1.23}
{"binder": "B5", "Kd": 0.288}
{"binder": "B6", "Kd": 0.292}
{"binder": "B7", "Kd": 0.7}
{"binder": "B8", "Kd": 0.803}
{"binder": "B9", "Kd": 2.6}
{"binder": "B10", "Kd": 1.04}
